Assay results as given in article PMC12408356 (Nature Microbiology, 2025).

Biological target: T1, JUNV GPC MC2-TS (wild-type Junin virus glycoprotein complex) (Junin virus, MC2 strain, UniProt P26313, myristoyl on G2 | N-linked glycans | N-linked glycans)
T1 construct: copies: 3 + 3 + 3
Experiment: flow cytometry on cells
Conditions: one partner purified

T1 sequence (P26313 2-58, chain 1 of 3): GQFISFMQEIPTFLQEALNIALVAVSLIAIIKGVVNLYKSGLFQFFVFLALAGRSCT
T1 sequence (P26313 59-251, chain 2 of 3): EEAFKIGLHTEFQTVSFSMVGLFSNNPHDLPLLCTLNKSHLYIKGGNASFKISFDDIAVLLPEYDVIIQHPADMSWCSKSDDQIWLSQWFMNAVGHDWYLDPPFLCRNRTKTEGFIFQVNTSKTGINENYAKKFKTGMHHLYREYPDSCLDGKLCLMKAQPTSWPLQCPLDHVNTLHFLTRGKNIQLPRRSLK
T1 sequence (P26313 252-485, chain 3 of 3): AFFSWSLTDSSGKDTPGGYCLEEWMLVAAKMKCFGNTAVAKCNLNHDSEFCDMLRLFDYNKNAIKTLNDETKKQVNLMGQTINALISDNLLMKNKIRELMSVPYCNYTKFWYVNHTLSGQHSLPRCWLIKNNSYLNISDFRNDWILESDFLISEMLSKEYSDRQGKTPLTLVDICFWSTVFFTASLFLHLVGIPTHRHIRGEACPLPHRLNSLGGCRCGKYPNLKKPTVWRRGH

Row | Binder | binding result
1 | CR1-10 (antibody, V domains shown) VH: QVQLQESGPGLVKPSQTLSLTCSVSGGSIGGSSYYWSWIRHHPGKGLEWIGYINYRGITHYNAALKSRVSMSVETSQNHFSLQLTSVTAADTAVYYCARLTSDCSGGNCYQAFDYWGQGSLVSVS VL: EIVLTQSPGTLSLSPGETATLSCRASQSVSSSYLAWYQQKPGQAPRLLIYGASGRATGIPDRFSGSGSGTDFTLTISRLEPEDFAVYYCQQYGRSGYTFGQGTKLEIK | binds
2 | CR1-07 (antibody, V domains shown) VH: QVQLVESGGGVVHPGRSLRLSCAASGFTFGTSIMHWVRQAPGKGMQWVAQISHDESRKFYSDSVKGRFTVSRDNSKNTLFLEMSSLRIEDTAVYYCAKDLSPPYSYAWDIFQYWGQGSLVTVS VL: DIVMTQSPESLAVSLGERATINCKSSQSVLYSSRSDNKDYLAWYQQKPGQSPKLLIYWASTRESGVPERFTGSGSGTDFTLSISSLQAEDVAVYYCQQYYSSPPTFGGGTKVELK | binds
3 | CR1-28 (antibody, V domains shown) VH: QVQLVESGGGVVQPGRSLRLSCAASGFTFSSSAMHWVRQAPGKGLEWVAVIWSDGSNENYADSVKGRFTISRDNSKNTLYLQMSSLRAEDTAVYYCATDKTYVSGYTSTWYYFNYWGQGTLVTVS VL: DIQMTQSPSTLSASVGDRVTITCRASQSIDNWLAWYQQKPGKAPKLLIYTASRLESGVPSRFSGSGSGTEFTLTISSLQPDDFATYYCQHRTFGQGTKVEIK | binds
